Drawing on US6475806, this text covers IC50 for 1 substance.

The target of this assay is antibody to hCG. As to the kind of experiment: competition: unlabelled hCG displacing hCG-I^125 from the antibody to hCG.

As to “hCG (from UniProt P01215 25-116; P0DN86 21-165) (ligand)”, the half-maximal inhibitory concentration (IC50) (usually the concentration that inhibits the measured activity by half) was 0.01 µM. In other words, the double-digit nanomolar range.
